Assay results taken from patent US20070243571A1, “Method for Measurement of Activity of Homocysteinethiolactone Hydrolyzing Enzyme” (priority 2004, published 2007).
Read-outs that look alike come from different tables or passages of the source.

B1: Cholinesterase: Human butyrylcholinesterase (348643, Boehringer) dissolved in purified water, 2.0 U/ml solution (protein, UniProt P06276 29-602, looked up)
Cholinesterase: EDDIIIATKNGKVRGMNLTVFGGTVTAFLGIPYAQPPLGRLRFKKPQSLTKWSDIWNATKYANSCCQNIDQSFPGFHGSEMWNPNTDLSEDCLYLNVWIPAPKPKNATVLIWIYGGGFQTGTSSLHVYDGKFLARVERVIVVSMNYRVGALGFLALPGNPEAPGNMGLFDQQLALQWVQKNIAAFGGNPKSVTLFGESAGAASVSLHLLSPGSHSLFTRAILQSGSFNAPWAVTSLYEARNRTLNLAKLTGCSRENETEIIKCLRNKDPQEILLNEAFVVPYGTPLSVNFGPTVDGDFLTDMPDILLELGQFKKTQILVGVNKDEGTAFLVYGAPGFSKDNNSIITRKEFQEGLKIFFPGVSEFGKESILFHYTDWVDDQRPENYREALGDVVGDYNFICPALEFTKKFSEWGNNAFFYYFEHRSSKLPWPEWMGVMHGYEIEFVFGLPLERRDNYTKAEEILSRSIVKRWANFAKYGNPNETQNNSTSWPVFKSTEQKYLTLNTESTRIMTKLRAQQCRFWTSFFPKVLEMTGNIDEAEWEWKAGFHRWNNYMMDWKNQFNDYTSKKESCVGL

Columns and labels:
[1] = target: T1, Human butyrylcholinesterase (Homo sapiens, UniProt P06276); assay: Hydrolysis of substrate by purified human cholinesterase; type: biochemical; settings: 2.0 U/ml human butyrylcholinesterase solution as sample
T1 construct: purchased Boehringer 348643
Experimental: Human butyrylcholinesterase (348643, Boehringer) was dissolved in purified water to prepare a 2.0 U/ml solution.
(§1) Following the above parameters, purified water, 15 μl of a sample and 200 μl of reagent 1(A) or 1(B) or 1(C) or 1(D) was dispensed and mixed, and, after a certain length of time at a constant temperature (37° C., 5 min), 50 μl of reagent 2 was added and mixed to allow reaction to start. When reagent 2 was added to the mixture of the fraction containing serum, plasma, albumin or HDL and reagent 1(A), 1(C) or 1(D), increase in absorbance was detected which was due to the reaction of the SH-group detection reagent with DL-homocysteine, which has a free SH group, formed by hydrolysis of HTL.
as §1, with “parameters,” for “parameters, purified water,”, “cholinesterase” for “albumin”, “1(A),” for “1(A), 1(C) or 1(D),”, “4-mercaptobutyric acid,” for “DL-homocysteine,”, “by” for “by hydrolysis”, “HTL hydrolyzing enzyme.” for “HTL.”

[2] = Autolysis of the substrate in reagent-blank (purified water as sample); type: physicochemical; settings: HTL, MOPS buffer pH 7.8, purified water as sample
Experimental: as §1
As evident from FIG. 2, increase in absorbance is suppressed when calcium ion is blocked by EDTA.
as §1, with “parameters,” for “parameters, purified water,”, “cholinesterase” for “albumin”, “1(A),” for “1(A), 1(C) or 1(D),”, “4-mercaptobutyric acid,” for “DL-homocysteine,”, “by” for “by hydrolysis”, “HTL hydrolyzing enzyme.” for “HTL.”
As evident from FIG. 4, increase in absorbance is suppressed when calcium ion is not present. […]

cholinesterase = cholinesterase (Homo sapiens, UniProt P06276); settings: Nescoat ChE V-2 according to the package insert
Experimental: Cholinesterase activity was measured with the above-mentioned samples and unprepared serum. Measurement of cholinesterase activity was carried out using Nescoat ChE V-2 (Alfresa Pharma Coporation) according to the package insert.

HTL hydrolyzing enzyme [3] = assay: Measurement of hydrolyzing enzyme activity for HTL (DTNB rate assay, H-7170 analyzer); type: biochemical, human; settings: substrate DL-HTL
Experimental: Hydrolyzing enzyme activity for HTL was measured with purified water and above-mentioned samples.
Reagent 1(A): SH-group detection solution; 0.2 M MOPS buffer containing 0.5 mM CaCl2 and 1.0 mM DTNB (pH 7.8).
Reagent 1(B): SH-group detection solution; 0.2 M MOPS buffer containing 2 mM EDTA and 1.0 mM DTNB (pH 7.8).
Reagent 1(C): SH-group detection solution; 0.2 M MOPS buffer containing 0.5 mM CaCl2, 0.1 mM physostigmine sulfate and 1.0 mM DTNB (pH 7.8).
Reagent 1(D): SH-group detection solution; 0.2 M MOPS buffer containing 0.5 mM CaCl2, 0.1 mM neostigmine bromide and 1.0 mM DTNB (pH 7.8).
Reagent 2: substrate solution; aqueous solution containing 125 mM DL-HTL (Tokyo Chemical Industry Co., Ltd).
For measurement of HTL hydrolyzing enzyme activity, H-7170 automatic analyzer (Hitachi, Ltd.) was used. Parameters for measurement were as follows.
Following the above parameters, purified water, 15 μl of a sample and 200 μl of reagent 1(A) or 1(B) or 1(C) or 1(D) was dispensed and mixed, and, after a certain length of time at a constant temperature (37° C., 5 min), 50 μl of reagent 2 was added and mixed to allow reaction to start.
(§2) The activity value of HTL hydrolyzing enzyme in each sample was calculated based on: the change in absorbance per unit of time (1 min) (ΔE) from 2-minute up to 4-minute time points after the addition of the substrate (reagent 2), the molecular extinction coefficient of 5-thio-2-nitrobenzoic acid at the wavelength of 480 nm, ε=2509, and the molecular extinction coefficient of the compound at the wavelength of 546 nm, ε=78.

HTL hydrolyzing enzyme [4] = assay: Measurement of hydrolyzing enzyme activity for TBL (DTNB rate assay, H-7170 analyzer); type: biochemical, human; settings: substrate TBL
Experimental: Hydrolyzing enzyme activity for TBL was measured with above-mentioned samples and unprepared serum.
Reagent 1(A): SH-group detection solution; 0.2 M MOPS buffer containing 0.5 mM CaCl2 and 1.0 mM DTNB (pH 7.2).
Reagent 1(B): SH-group detection solution; 0.2 M MOPS buffer containing 2 mM EDTA and 1.0 mM DTNB (pH 7.2).
Reagent 1(C): SH-group detection solution; 0.2 M MOPS buffer containing 0.5 mM CaCl2, 0.1 mM physostigmine sulfate and 1.0 mM DTNB (pH 7.2).
Reagent 1(D): SH-group detection solution; 0.2 M MOPS buffer containing 0.5 mM CaCl2, 0.1 mM neostigmine bromide and 1.0 mM DTNB (pH 7.2).
Reagent 2: substrate solution; aqueous solution containing 125 mM TBL (Aldrich).
For measurement of hydrolyzing enzyme activity TBL, H-7170 automatic analyzer (Hitachi, Ltd.) was used. Parameters for measurement were as follows.
Following the above parameters, 15 μl of a sample and 200 μl of reagent 1(A) or 1(B) or 1(C) or 1(D) was dispensed and mixed, and, after a certain length of time at a constant temperature (37° C., 5 min), 50 μl of reagent 2 was added and mixed to allow reaction to start.
as §2, with “enzyme for TBL” for “enzyme”

Molecule | hydrolysis by purified human cholinesterase [1] | stability of substrate in the reaction solution (autolysis, increase in absorbance of reagent-blank) [2] | Cholinesterase activity (cholinesterase) | Cholinesterase activity (cholinesterase; listed as human cholinesterase) | activity value of HTL hydrolyzing enzyme, No addition (HTL hydrolyzing enzyme [3]; Reagent 1(A): 0.5 mM CaCl2, pH 7.8, 37° C., no inhibitor) | activity value of HTL hydrolyzing enzyme, EDTA.2Na (HTL hydrolyzing enzyme [3]; Reagent 1(B): 2 mM EDTA, pH 7.8, 37° C.) | activity value of HTL hydrolyzing enzyme, Physostigmine sulfate (HTL hydrolyzing enzyme [3]; Reagent 1(C): 0.5 mM CaCl2, 0.1 mM physostigmine sulfate, pH 7.8, 37° C.) | activity value of HTL hydrolyzing enzyme, Neostigmine bromide (HTL hydrolyzing enzyme [3]; Reagent 1(D): 0.5 mM CaCl2, 0.1 mM neostigmine bromide, pH 7.8, 37° C.) | activity value of HTL hydrolyzing enzyme for TBL, No addition (HTL hydrolyzing enzyme [4]; Reagent 1(A): 0.5 mM CaCl2, pH 7.2, 37° C., no inhibitor) | activity value of HTL hydrolyzing enzyme for TBL, EDTA.2Na (HTL hydrolyzing enzyme [4]; Reagent 1(B): 2 mM EDTA, pH 7.2, 37° C.) | activity value of HTL hydrolyzing enzyme for TBL, Physostigmine sulfate (HTL hydrolyzing enzyme [4]; Reagent 1(C): 0.5 mM CaCl2, 0.1 mM physostigmine sulfate, pH 7.2, 37° C.) | activity value of HTL hydrolyzing enzyme for TBL, Neostigmine bromide (HTL hydrolyzing enzyme [4]; Reagent 1(D): 0.5 mM CaCl2, 0.1 mM neostigmine bromide, pH 7.2, 37° C.)
NC1CCSC1=O (stereo not drawn) [HTL, homocysteinethiolactone] | not hydrolyzed | unstable in the reaction solution | – | – | – | – | – | – | – | – | – | –
B1 | – | – | 15392 | observed | 8 | 6 | −1 | −2 | 403 | 399 | 1 | 2
